From PMC3140568 (Journal of immunology (Baltimore, Md. : 1950), 2011)
Square brackets hold non-standard residues; d marks the D form. Ends that are not written are not given here. pS = N[C@@H](COP(=O)(O)O)C(=O)O

Target: T1, TNF receptor-associated death domain protein, wild type (human, UniProt Q15628 1-312)
T1 sequence (looked up): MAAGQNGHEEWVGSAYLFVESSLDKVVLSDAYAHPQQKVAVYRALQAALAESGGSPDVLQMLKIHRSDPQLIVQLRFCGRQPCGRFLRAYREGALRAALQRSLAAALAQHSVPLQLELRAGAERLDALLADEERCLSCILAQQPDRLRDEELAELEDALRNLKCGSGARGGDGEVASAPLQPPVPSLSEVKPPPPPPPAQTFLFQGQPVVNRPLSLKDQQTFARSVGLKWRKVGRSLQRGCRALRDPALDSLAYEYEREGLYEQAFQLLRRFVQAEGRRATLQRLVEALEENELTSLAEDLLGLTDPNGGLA
Assay: peptide competition on an immuno-purified complex

VRRLGL[pS]DHEIDRLELQNGRC (peptide, UniProt P19438 375-395, looked up) [phosphorylated peptide containing the S381XXE motif of TNFR1 (position 375–395)]
binding result: binds
